Data: patent publication US20230025280A1, “PH RESPONSIVE COMPOSITIONS, FORMULATIONS, AND METHODS OF IMAGING A TUMOR” (ONCONANO MEDICINE, INC, priority 2019, published 2023)
Values joined by “and” are separate entries in the source; they are usually repeats but may differ in a detail not shown here. Equal values may be shown once.

Test: Phase 1 (1a/1b) pharmacokinetics: plasma concentrations after single IV dose (validated direct fluorescence reader assay), noncompartmental analysis
Assay type: in vivo, human
Details: for AUC0-24 hr / AUCall / AUClast / C10 m / Cmax / T1/2 / Tmax / Plasma Conc: Phase 1b; for AUC0-24 hr / AUCall / AUClast / C10 m / Cmax / T1/2 / Tmax: 1.2 mg/kg single IV; for Plasma Conc: 1.2 mg/kg
Description: Phase 1 is a single-Principal Investigator, non-randomized, open-label, single-arm, cross-sectional study to evaluate the safety, PK profile, and imaging feasibility of Compound 1 in patients with solid cancers who require surgical excision. The main purpose of this study was to investigate the safety, PK, and feasibility of Compound 1 as an intra-operative optical imaging agent to detect tumors and metastatic lymph nodes in solid cancers. The study was intended to investigate the optimal dose range of Compound 1 for an adequate TBR and CNR of fluorescence obtained intraoperatively at 24 (±8) hours post dosing and with ex vivo specimens using ICG compatible cameras and imaging devices.
Phase 1 enrolled 30 patients with solid cancers (HNSCC, breast cancer, esophageal cancer, or colorectal cancer) who have a biopsy-confirmed diagnosis of respective tumor types and are scheduled to undergo surgical resection of the tumor. The study design included a standard 3+3 design for the dose-escalation portion (Phase 1a; N=18 maximum) followed by a dose-expansion portion (Phase 1b; N=15). All patients received a single I.V. dose of Compound 1, followed by routine surgery approximately 24 hours after infusion of Compound 1.
Phase 1a was a dose-finding study performed in 5 cohorts of 3 patients each. The dose levels evaluated were […], and 1.2 mg/kg, in this sequence. Inter-cohort dose escalation took place after the last patient in the previous cohort completed the Day 10 safety assessment. Safety, PK, and imaging feasibility were evaluated in both the Phase 1a and 1b portions of the study. Patient safety is assessed during the study and for up to 10 days post-dose.
Study design: Single Compound 1 IV dose was administered as a 1-5 minute IV infusion to patients in five cohorts (0.1, 0.3, 0.5, 0.8, and 1.2 mg/kg) with three patients per cohort in Phase 1a and 15 patients at a dose of 1.2 mg/kg in Phase 1b. Patient demographic information including tumor types is presented in Table 4 and 5 for Phase 1a and Table 5 for Phase 1b. Intertek Pharmaceutical Services (San Diego, Calif.) determined Compound 1 plasma concentrations using a validated direct fluorescence reader assay. Pacific BioDevelopment (Davis, Calif.) performed the PK analysis.
Sample collection: Blood samples were collected prior to infusion and at 10 minutes and 0.5, 1, 3, 8, 24, 48, 72, and 240 hours after infusion.
Analysis: Plasma concentration versus time profiles were generated for each patient. Pharmacokinetic parameters were estimated using Phoenix WinNonlin (version 8.0). According to SOP, concentrations reported as BQL were set to 0 except for the 0.5 h sample for subject #ON1102, which was set to LLOQ/2 ([…] value used in parameter calculations) and the 24 and 48 h samples.
If the coefficient of determination for the terminal slope estimation was less than 0.8, T1/2 was not reported (NR). AUC extrapolated to infinity is not reported for any data set because in all cases the % extrapolated AUC was greater than 20% and thus the AUCinf estimate would not be reliable. The concentration at 10 minutes, the first time point measured (C10m), was also reported for each patient.
The area under the plasma concentration versus time curves from dosing to the last time point with a measurable concentration (AUClast) was estimated by the linear trapezoid method. The last three or more time points were used to estimate the elimination rate constant (λz) which was used to estimate the terminal-phase half-life (T1/2) and AUC from zero to infinity (AUCINF) from the following equations: […]

Q: With “PEO90-140-b-P(DBA60-150-r-ICG0-3-r-AMA0-3) [Compound 1]” as the substance, how does the AUC0-24 hr (mean) read?
A: 638 µg·h/mL

Q: And the AUCall (mean)?
A: 1840 µg·h/mL

Q: What about the AUClast (mean) of the same substance?
A: 1180 µg·h/mL

Q: And the C10 m (mean)?
A: 33.2 µg/mL

Q: And the Cmax (mean)?
A: 34800 ng/mL

Q: What about the T1/2 (mean) of the same substance?
A: 46.4 h

Q: What about the Tmax (mean) of the same substance?
A: 0.967 h

Q: And the AUC0-24 hr (median)?
A: 626 µg·h/mL

Q: And the AUCall (median)?
A: 1460 µg·h/mL

Q: What about the AUClast (median) of the same substance?
A: 1110 µg·h/mL

Q: What about the C10 m (median) of the same substance?
A: 32.1 µg/mL

Q: What about the Cmax (median) of the same substance?
A: 34100 ng/mL

Q: And the T1/2 (median)?
A: 42.6 h

Q: What about the Tmax (median) of the same substance?
A: 1.00 h

Q: What about the “Plasma Conc” value (0.170 hr, individual subject) of the same substance?
A: 27.5 µg/mL and 38.6 µg/mL and 30.3 µg/mL and 31.4 µg/mL and 25.5 µg/mL and 40.0 µg/mL and 47.6 µg/mL and 32.6 µg/mL and 31.3 µg/mL and 36.5 µg/mL and 32.1 µg/mL and 35.8 µg/mL and 33.0 µg/mL and 28.0 µg/mL and 28.5 µg/mL

Q: And the “Plasma Conc” value (0.170 hr, mean)?
A: 33.2 µg/mL

Q: And the “Plasma Conc” value (0.170 hr, median)?
A: 32.1 µg/mL

Q: What about the “Plasma Conc” value (0.500 hr, individual subject) of the same substance?
A: 29.2 μg/mL and 35.2 μg/mL and 30.3 μg/mL and 28.5 μg/mL and 27.6 μg/mL and 40.0 μg/mL and 44.1 μg/mL and 32.0 μg/mL (2×) and 28.9 μg/mL and 34.5 μg/mL and 32.9 μg/mL and 36.4 μg/mL and 31.4 μg/mL and 29.8 μg/mL

Q: And the “Plasma Conc” value (0.500 hr, mean)?
A: 32.9 µg/mL

Q: What about the “Plasma Conc” value (0.500 hr, median) of the same substance?
A: 32.0 µg/mL

Q: And the “Plasma Conc” value (1.00 hr, individual subject)?
A: 25.9 μg/mL and 33.0 μg/mL and 31.3 μg/mL (2×) and 32.6 μg/mL and 23.3 μg/mL and 42.2 μg/mL (2×) and 29.9 μg/mL (2×) and 37.7 μg/mL and 34.1 μg/mL and 35.4 μg/mL and 34.3 μg/mL and 26.8 μg/mL

Q: And the “Plasma Conc” value (1.00 hr, mean)?
A: 32.7 µg/mL

Q: And the “Plasma Conc” value (1.00 hr, median)?
A: 32.6 µg/mL

Q: What about the “Plasma Conc” value (3.00 hr, individual subject) of the same substance?
A: 27.5 μg/mL and 34.3 μg/mL (2×) and 32.4 μg/mL and 31.3 μg/mL and 25.0 μg/mL and 40.1 μg/mL and 35.3 μg/mL and 30.3 μg/mL and 29.6 μg/mL and 31.5 μg/mL and 33.3 μg/mL and 31.2 μg/mL and 26.4 μg/mL and 25.4 μg/mL

Q: What about the “Plasma Conc” value (3.00 hr, mean) of the same substance?
A: 31.2 µg/mL

Q: And the “Plasma Conc” value (3.00 hr, median)?
A: 31.3 µg/mL

Q: And the “Plasma Conc” value (8.00 hr, individual subject)?
A: 21.1 μg/mL and 28.3 μg/mL and 31.3 μg/mL and 26.1 μg/mL and 23.6 μg/mL (2×) and 35.8 μg/mL and 32.6 μg/mL and 25.0 μg/mL and 33.6 μg/mL and 27.9 μg/mL and 32.4 μg/mL and 27.8 μg/mL and 30.0 μg/mL and 24.5 μg/mL

Q: And the “Plasma Conc” value (8.00 hr, mean)?
A: 28.2 µg/mL

Q: And the “Plasma Conc” value (8.00 hr, median)?
A: 27.9 µg/mL

Q: What about the “Plasma Conc” value (24.0 hr, individual subject) of the same substance?
A: 18.9 μg/mL and 29.8 μg/mL and 15.5 μg/mL and 20.2 μg/mL and 15.0 μg/mL and 23.9 μg/mL and 22.7 μg/mL and 19.5 μg/mL and 26.2 μg/mL and 20.3 μg/mL (2×) and 21.2 μg/mL and 18.6 μg/mL and 25.6 μg/mL and 21.0 μg/mL

Q: What about the “Plasma Conc” value (24.0 hr, mean) of the same substance?
A: 21.2 µg/mL

Q: What about the “Plasma Conc” value (24.0 hr, median) of the same substance?
A: 20.3 µg/mL

Q: What about the “Plasma Conc” value (48.0 hr, individual subject) of the same substance?
A: BQL (BQL (<10 μg/mL), set = 0 for PK analysis) (2×) and 19.9 μg/mL and 18.5 μg/mL and 12.6 μg/mL and 12.0 μg/mL and 16.3 μg/mL and 13.3 μg/mL and 11.8 μg/mL and 15.0 μg/mL and 12.5 μg/mL and 10.2 μg/mL and 22.0 μg/mL and 12.8 μg/mL and 12.3 μg/mL

Q: And the “Plasma Conc” value (48.0 hr, mean)?
A: 12.6 µg/mL

Q: And the “Plasma Conc” value (48.0 hr, median)?
A: 12.6 µg/mL

Q: What about the “Plasma Conc” value (72.0 hr, individual subject) of the same substance?
A: BQL (BQL (<10 μg/mL), set = 0 for PK analysis) (8×) and 18.7 μg/mL and 14.9 μg/mL and 10.4 μg/mL and 12.0 μg/mL and 12.8 μg/mL and 13.8 μg/mL and 17.3 μg/mL

Q: What about the “Plasma Conc” value (72.0 hr, mean) of the same substance?
A: 6.66 µg/mL

Q: And the “Plasma Conc” value (72.0 hr, median)?
A: 0.00 µg/mL

Q: And the “Plasma Conc” value (240 hr, individual subject)?
A: BQL (BQL (<10 μg/mL), set = 0 for PK analysis)

Q: What about the “Plasma Conc” value (240 hr, mean) of the same substance?
A: 0.00 µg/mL

Q: What about the “Plasma Conc” value (240 hr, median) of the same substance?
A: 0.00 µg/mL

Q: What about the “C10 in relation to dose” value (from 0.3 through 1.2 mg/kg) of the same substance?
A: appears to be dose proportional
